Assay results as given in the RNAGym collection of RNA variant scans (doi:10.7554/elife.80360).

B1: HDV Ribozyme (parent)
chain: GGCCGGCAUGGUCCCAGCCUCCUCGCUGGCGCCGGCUGGGCAACAUUCCGAGGGGACCGUCCCCUCGGUAAUGGCGAAUGGGACCCA

Variants of: B1
Assay: self-cleavage, relative activity (ratio to wild type); higher = more cleavage; co-transcriptional

Variant | self-cleavage
GGCCGGCGUGGUCCCAGCCUCUUCGCUGGCGCCGGCUGGGCAACAUUCCGAGGGGACCGUCCCCUCGGUAAUGGCGAAUGGGACCCA [A8G C22U] | 0.361
GGCCGGCAUGGUCCCAGCCUCUUCGCUGGCGCCGGCUGGGCAACAUUCCGAGGGGACCGUCCCCUCGGUAAUGGCGAAUCGGACCCA [C22U G80C] | 0.0712
GGCCGGCAUGGUCCCAGCCUCCCCGCUGGCGCCGGCUGGGCAGCAUUCCGAGGGGACCGUCCCCUCGGUAAUGGCGAAUGGGACCCA [U23C A43G] | 0.277
GGCCGGCAUGGUCCCAGCCUCCUCGCUGGCGCCGGAUGGGCAACAUUCCGAGGGGACCGUCCCCUCGGUAAUCGCGAAUGGGACCCA [C36A G73C] | 0.178
GGCCGGCAUGGUCCCAGCCUCCUCGCUGGCGCCGGCUGGGCAACAUUCCGAGGGGACCGUCCCCUCGCUAAUGGCGACUGGGACCCA [G68C A78C] | 0.237
GGCCGGCAUGGUCCCAGCCUCCUCGCUGGCGCCGGCUGGGCUACAUUCCGAGGGAACCGUCCCCUCGGUAAUGGCGAAUGGGACCCA [A42U G55A] | 0.604
GGCCGGCAUGGUCCCAGCCUCCUCGGUGGCGCCGGCUGGGCAACAAUCCGAGGGGACCGUCCCCUCGGUAAUGGCGAAUGGGACCCA [C26G U46A] | 0.731
GGCUGGCAUGGUCCCAGCCUCCUCGCUGGCGCCGGCUGGGCAACAUUCCGAGGGGACCGUCCCCUUGGUAAUGGCGAAUGGGACCCA [C4U C66U] | 0.704
GGCCGGCAUGGUCCCACCCUCCUCGCUGGCGCCGGCUGGGCAAUAUUCCGAGGGGACCGUCCCCUCGGUAAUGGCGAAUGGGACCCA [G17C C44U] | 0.142
GGCCGGCAUGGUCCCAGCCUCCUCGCUGGCGCCGGCUGGGCAACAUUCCGAGGGGACCGUCCCCUCGGUAAGGGCGAAUGGGCCCCA [U72G A83C] | 0.332
UGCCGGCAUGGUCCCAGCCUCCUCGCUGGCGCCGGCUGGGCAACAUUCCGAGGGGACCGUCCCCUCGGUAGUGGCGAAUGGGACCCA [G1U A71G] | 0.429
GGCCGGCAUGGUCCCAGCCUCCUCGCUGGCGCCGGCUGGGCAACAUUCCGAGGGGACCGGCCCCUAGGUAAUGGCGAAUGGGACCCA [U60G C66A] | 0.831
GGCCGGCAUGGUCCCAGCCUCCUCGCUGCCCCCGGCUGGGCAACAUUCCGAGGGGACCGUCCCCUCGGUAAUGGCGAAUGGGACCCA [G29C G31C] | 0
GGCCGGCAUGGUCCCAGCCUCCUCGCUGGCGCCGGCUGGGCAACAUUCAGAGGGGACCGUCCUCUCGGUAAUGGCGAAUGGGACCCA [C49A C63U] | 0.817
GGCCGGCAUGGUCCCAGCCUCCUCGCUGGCGCCGGCUGGGCAACAUUCCGAGGGGACCGUCCCCUCGGUAAUGGCCAAAGGGACCCA [G76C U79A] | 0.649
GGCCGGCAUGGGCCCAGCCUCCUCGCUGGCGCCGGCUGGGCAACAUUCCGAGGGGACCGUCCACUCGGUAAUGGCGAAUGGGACCCA [U12G C63A] | 0.712

Variant | self-cleavage
GGCCGGCAUGGUCCCAGCCUCCUCGCUAGCGCCGGCUGGGCAACAUUCCGAGGGGACCGUCCCCUCGGUAAUGGAGAAUGGGACCCA [G28A C75A] | 0.121
GGCCGGCAUGGUCCCAGCCUCCUCGCUGGCGCCGGCUGGGCAAAAUUACGAGGGGACCGUCCCCUCGGUAAUGGCGAAUGGGACCCA [C44A C48A] | 0.88
GGCCGGCAUGGUCCCAGCCUCCUCGAUGGCGCCGGCUGGGCAACAUUCCGAGGGGACCGUCCCCUCGGUAAUAGCGAAUGGGACCCA [C26A G73A] | 0.89
GGCCGGCAUGGUCCCAGCCUCCUCGCUGGCGCCGGCUGGGCACCAUUCCAAGGGGACCGUCCCCUCGGUAAUGGCGAAUGGGACCCA [A43C G50A] | 0.469
GGCCGGCAUGGUCCCAGCCUCCUUGCUGGCGCCGGCUGGGCAACAUUCCGAGGGGACCCUCCCCUCGGUAAUGGCGAAUGGGACCCA [C24U G59C] | 0.845
GGCCGGCAUGGUCCCAGCCUCCUCGCUGGCGCCGGCUGGGCAACAUUCCGAGGGGACCGUCCCCUCGGUAAGGGCGAAUUGGACCCA [U72G G80U] | 0.0963
GGCCGGCAUGGUCCCAGCCUCCUCUCUGGCGCAGGCUGGGCAACAUUCCGAGGGGACCGUCCCCUCGGUAAUGGCGAAUGGGACCCA [G25U C33A] | 0.156
GGCCGGCAUGGUCCCAGCCUCCUCGCUGGCGCCGGCUGGGCAACAUUCCGAUGGGACCGUCCCCUCGGUAAUGGGGAAUGGGACCCA [G52U C75G] | 0.297
GGCCGGCAUGGUCCCAGCCUCCUCGCGGGCGCCGGCUGGGCAACAUUCCGAGGGGACCGUCCCCUCGGAAAUGGCGAAUGGGACCCA [U27G U69A] | 0.959
GGCCGGCAUGGUCCCAGCCUCCUCGCUGGCGCCGGCUGGGCAACAUUCCGAGGCGACCGGCCCCUCGGUAAUGGCGAAUGGGACCCA [G54C U60G] | 0.895
GGCCGGCAUGGUCCCAGCCUCCGCGCUGGCGCCGGCUGGGCAACAUUCCGAGGGGACAGUCCCCUCGGUAAUGGCGAAUGGGACCCA [U23G C58A] | 0.877
GGCCGGCAUGGUCCCAGCCUCCUCGCUGGCGCCGGCUGGGCAACAUUCCGAGGGGAACGUCCCCUCGGUAAUGGCGAAUGGGUCCCA [C57A A83U] | 0.554
GGCCGGCAUGGUCGCUGCCUCCUCGCUGGCGCCGGCUGGGCAACAUUCCGAGGGGACCGUCCCCUCGGUAAUGGCGAAUGGGACCCA [C14G A16U] | 0.791
GGCCGGCAUGGUGCCAGCCUCCUCGCUGGCGCCGGCUGGGCACCAUUCCGAGGGGACCGUCCCCUCGGUAAUGGCGAAUGGGACCCA [C13G A43C] | 0.262
GGCCGGCAUGGUCCCAGCAUCCUCGCUUGCGCCGGCUGGGCAACAUUCCGAGGGGACCGUCCCCUCGGUAAUGGCGAAUGGGACCCA [C19A G28U] | 0.79
GGCCGGCAUGGUCCCAGCCUCCUCGGUGGCGCCGGCUGGGCAACAUUACGAGGGGACCGUCCCCUCGGUAAUGGCGAAUGGGACCCA [C26G C48A] | 0.973
